{"source": "patent US20130035289A1", "about": "“PHARMACEUTICAL COMPOSITION FOR TREATMENT OF THROMBOSIS-RELATED DISEASES COMPRISING A FRAGMENT OF PROLACTIN (PRL)-GROWTH HORMONE (GH)-PLACENTAL LACTOGEN (PL)-FAMILY PROTEIN” (UNIVERSITE DE LIEGE, priority 2010, published 2013)", "molecules": {"B1": {"name": "23K PRL: the full fragment (full-length) prolactin (protein)", "chain": "LPICPGGAARCQVTLRDLFDRAVVLSHYIHNLSSEMFSEFDKRYTHGRGFITKAINSCHTSSLATPEDKEQAQQMNQKDFLSLIVSILRSWNEPLYHLVTEVRGMQEAPEAILSKAVEIEEQTKRLLEGMELIVSQVHPETKENEIYPVWSGLPSLQMADEESRLSAYYNLLHCLRRDSHKIDNYLKLLKCRIIHNNNC"}}, "target": "T1, PAI-1 (Homo sapiens, UniProt P05121)", "T1 construct": "gift of Pr; P. Declerck", "T1 sequence (P05121 24-402)": "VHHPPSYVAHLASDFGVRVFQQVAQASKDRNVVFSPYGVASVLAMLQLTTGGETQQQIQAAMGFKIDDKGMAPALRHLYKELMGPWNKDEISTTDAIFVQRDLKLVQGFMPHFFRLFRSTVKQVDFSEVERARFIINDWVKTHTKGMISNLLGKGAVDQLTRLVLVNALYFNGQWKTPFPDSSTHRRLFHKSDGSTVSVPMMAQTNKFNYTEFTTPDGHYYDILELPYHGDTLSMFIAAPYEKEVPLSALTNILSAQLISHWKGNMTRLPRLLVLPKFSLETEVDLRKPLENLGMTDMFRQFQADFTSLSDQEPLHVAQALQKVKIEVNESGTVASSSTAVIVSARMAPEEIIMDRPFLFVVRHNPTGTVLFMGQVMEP", "assay": "Inhibition of PAI-1 anti-proteolytic activity, uPA/plasminogen chromogenic (colorimetric) assay", "format": "biochemical", "settings": "uPA, bovine plasminogen, PAI-1, absorbance 405 nm", "protocol": "The main physiological function of PAI-1 is to inhibit uPA and tPA proteolytic activity. […] A chromogenic substrate for plasmin (Spectrozyme PL: 0.5 mM. American Diagnostica INC) in PBS was added to the mixture in 96-well microtitration plates and kept at room temperature. The release of free p-nitro-aniline from the chromogenic substrate was measured spectrophotometrically. The activity of plasmin was determined as the absorbance at 405 nm."}
{"molecule": "B1", "values": [{"measurement": "inhibition of PAI-1 function to inhibit uPA and tPA proteolytic activity", "value": "did not show any inhibition"}]}
